According to paper PMC8884700, “Selection and Modelling of a New Single-Domain Intrabody Against TDP-43” (Frontiers in Molecular Biosciences, 2021):
Changes are numbered by the printed parent chain.

Assays:
[1] = target: T1, LexA-N-term + RRM1-2 (residues 1-258) (Homo sapiens (species of cDNA not …, UniProt Q13148)); test: two-hybrid; IACT / in vivo epitope mapping in L40 yeast; LexA-fused bait, VP16-fused VHH prey; growth on SD-WHL (HIS3); liquid beta-gal (LacZ) for the full-length bait; details: partners not purified
T1 construct: TDP-43, residues 1-258 (N-terminus plus RRM1 and RRM2); also called LexA- N-Term + RRM1-2 (1-258); N-terminal half of TDP-43; source: yeast two-hybrid fusion (L40 yeast)
T1 sequence (Q13148 1-258): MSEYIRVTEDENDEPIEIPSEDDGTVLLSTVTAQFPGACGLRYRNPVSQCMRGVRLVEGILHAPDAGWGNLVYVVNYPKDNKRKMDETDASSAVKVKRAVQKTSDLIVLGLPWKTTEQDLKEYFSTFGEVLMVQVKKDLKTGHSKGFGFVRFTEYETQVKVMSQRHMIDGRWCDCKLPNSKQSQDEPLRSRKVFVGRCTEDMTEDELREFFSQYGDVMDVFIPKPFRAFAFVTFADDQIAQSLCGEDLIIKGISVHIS

[2] = target: T2, LexA-TDP-43 full length (residues 1-414) (Homo sapiens (species of cDNA not …, UniProt Q13148)); test: as above; details: partners not purified
T2 construct: also called TDP-43 bait; source: yeast two-hybrid fusion (L40 yeast, pMicBD1 bait plasmid)
T2 sequence (Q13148 whole entry, the tested form may be a part): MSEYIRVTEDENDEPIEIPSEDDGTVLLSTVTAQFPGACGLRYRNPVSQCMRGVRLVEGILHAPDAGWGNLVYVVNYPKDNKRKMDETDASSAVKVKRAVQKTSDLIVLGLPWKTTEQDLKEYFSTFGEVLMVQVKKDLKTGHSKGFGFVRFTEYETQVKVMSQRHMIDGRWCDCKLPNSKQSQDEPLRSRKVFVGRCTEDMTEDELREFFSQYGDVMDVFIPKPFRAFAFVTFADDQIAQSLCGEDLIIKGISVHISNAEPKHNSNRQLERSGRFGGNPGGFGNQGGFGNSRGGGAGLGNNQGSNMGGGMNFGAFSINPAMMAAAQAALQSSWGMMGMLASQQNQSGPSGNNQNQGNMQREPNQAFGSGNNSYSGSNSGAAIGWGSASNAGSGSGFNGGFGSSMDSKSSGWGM

[3] = target: T3, LexA fragment of RRMs (160-208) (Homo sapiens (species of cDNA not …, UniProt Q13148)); test: as above; details: partners not purified
T3 construct: TDP-43, residues 160-208, containing the linker between RRM1 and RRM2; also called RRMs bait; source: yeast two-hybrid fusion (L40 yeast)
T3 chain: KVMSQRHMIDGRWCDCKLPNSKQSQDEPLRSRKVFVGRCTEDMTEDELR

LexA-RRM2 (192-258) = target: T4, LexA-RRM2 (192-258) (Homo sapiens (species of cDNA not …, UniProt Q13148)); test: as above; details: partners not purified
T4 construct: TDP-43, RRM2, residues 192-258; also called RRM2 bait; source: yeast two-hybrid fusion (L40 yeast)
T4 sequence (Q13148 192-258): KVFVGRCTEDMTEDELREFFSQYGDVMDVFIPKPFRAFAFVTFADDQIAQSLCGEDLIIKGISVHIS

[4] = target: T5, purified RRM1-2 of TDP-43 (tandem RRM domains) (Homo sapiens, UniProt Q13148); test: ELISA; sandwich ELISA; VHH5 coated at 1, 3, 5 and 10 uM in carbonate buffer pH 9.6; TDP-43 fragments (10 ug/ml) added in PBS/BSA 1% pH 7.4, 2 h, room temperature; detected with rabbit anti-TDP-43 polyclonal and HRP secondary antibody; details: both partners purified
T5 construct: TDP-43, tandem RRM1 and RRM2 domains; Production and limits of the purified construct are not described; The docking used PDB 4bs2 (human TDP-43 tandem RRM1-2) as the putative antigen; source: purified

purified RRM1 of TDP-43 = target: T6, purified RRM1 of TDP-43 (Homo sapiens, UniProt Q13148); test: as above; details: both partners purified
T6 construct: TDP-43, RRM1 domain; source: purified

purified RRM2 of TDP-43 = target: T7, purified RRM2 of TDP-43 (Homo sapiens, UniProt Q13148); test: ELISA; indirect ELISA; TDP-43 fragments coated at 1 uM in carbonate buffer pH 9.6; VHH5 added at 1, 3, 5 and 10 uM, 2 h, room temperature; detected with anti-camelid VHH [HRP]; details: both partners purified
T7 construct: TDP-43, RRM2 domain; source: purified
T7 sequence (Q13148 whole entry, looked up, the tested form may be a part): as the sequence (Q13148 whole entry, the tested form may be a part) above

Measured: binding result

B1: anti-TDP-43 VHH5 intrabody (VP16 activation domain fusion, prey in pLinker220) (VHH)
VHH: KVQLVESGGGSVQIGGSLRLSCRISEGSGNKYVMAWFRQAPGQEREFVGVISWSGTRTHYADSVRGRFTISRMDNTAYLQMDSLTPDDSGVYYCAASVSVPPFLELTAAHFGSWGQGTQVRVGS
notes: selected from a naive llama VHH SPLINT library; The modelling sections number residues 1-135, with H3 at 94-114; source: yeast two-hybrid fusion (L40 yeast, pLinker220 prey plasmid)
binds: [1] | [2] | [3] | LexA-RRM2 (192-258)

B2: VHH5-I15A_M75K (VHH)
VHH: B1 VHH with I14A, M73K
notes: also called purified VHH5; double mutant; not shown: SUMO, N-terminal, cleaved
binds: [4] | purified RRM1 of TDP-43 | purified RRM2 of TDP-43
